Experiment [1] addresses P2-hZP (C-terminus mimetic peptide of human TGFR-3, residues 737-788) (human) (UniProt Q03167). Description: SPR; ProteOn XPR36; biotinylated peptides immobilised on neutravidin (300-600 RU), TGF-β2 as analyte; 25°C, HBS150 (10 mM HEPES pH 7.4, 150 mM NaCl, 3.4 mM EDTA, 0.005% Tween 20); kinetic fit 1:1 Langmuir with or without mass transfer; avidity of dimeric TGF-β2 expected. (Surface plasmon resonance follows binding to a sensor surface in real time, without labels.)

The target of experiment [2] is P1-mZP (C-terminus mimetic peptide of murine TGFR-3-ZP, residues 735-782) (mouse) (UniProt O88393). The description is as above.
The target in experiment [3] is P4-mZP (17mer peptide of murine TGFR-3, residues 732-748) (mouse) (UniProt O88393). The description is as above.
Experiment [4] concerns the target P5-hZP (17mer peptide of human TGFR-3, residues 734-750) (human) (UniProt Q03167). The experiment is described as above.
In experiment [5] the target is TGF-β3 (Homo sapiens) (UniProt P10600). To be noted: cited from earlier work.
Experiment [6] concerns the target TGF-β2 (Homo sapiens) (UniProt P61812). The note with it: cited from earlier work.
Experiment [7] addresses TGF-β1 (Homo sapiens) (UniProt P01137). To be noted: cited from earlier work.
Experiment [8] concerns the target TGFR-3-ZP(ΔC) (mouse) (UniProt O88393). Description: SEC; analytical SEC of the ligand-free protein on Superdex 200 10/300, 4°C, 0.5 ml/min; apparent molecular weight against standards. (SEC sorts molecules by how far they enter the pores of the column.)

Sequence of P1-mZP (C-terminus mimetic peptide of murine TGFR-3-ZP, residues 735-782) (mouse) (O88393 735-782): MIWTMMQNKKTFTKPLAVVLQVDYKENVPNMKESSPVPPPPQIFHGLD
Sequence of P2-hZP (C-terminus mimetic peptide of human TGFR-3, residues 737-788) (human) (Q03167 737-788): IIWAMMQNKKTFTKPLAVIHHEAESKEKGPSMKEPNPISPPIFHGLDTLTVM
Sequence of TGFR-3 membrane-proximal ectodomain C-terminal half of ectodomain (P26342 410-781): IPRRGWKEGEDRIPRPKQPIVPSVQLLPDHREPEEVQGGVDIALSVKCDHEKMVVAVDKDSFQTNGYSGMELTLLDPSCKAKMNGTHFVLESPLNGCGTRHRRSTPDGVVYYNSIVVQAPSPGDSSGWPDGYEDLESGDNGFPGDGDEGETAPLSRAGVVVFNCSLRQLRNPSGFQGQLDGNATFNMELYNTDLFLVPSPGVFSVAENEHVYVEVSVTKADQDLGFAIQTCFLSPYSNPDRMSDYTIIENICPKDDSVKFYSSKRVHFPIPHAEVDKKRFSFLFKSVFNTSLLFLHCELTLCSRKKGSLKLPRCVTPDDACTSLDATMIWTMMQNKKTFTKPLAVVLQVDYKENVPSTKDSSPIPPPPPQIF
Sequence of TGF-β3 (Homo sapiens) (P10600 301-412): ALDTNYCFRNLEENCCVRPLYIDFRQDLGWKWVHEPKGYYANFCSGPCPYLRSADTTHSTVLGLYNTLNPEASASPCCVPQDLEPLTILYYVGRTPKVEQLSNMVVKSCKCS
Sequence of TGF-β1 (Homo sapiens) (P01137 279-390): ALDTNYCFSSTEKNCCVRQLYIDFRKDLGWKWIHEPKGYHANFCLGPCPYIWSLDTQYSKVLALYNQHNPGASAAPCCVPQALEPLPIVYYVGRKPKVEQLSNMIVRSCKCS
Sequence of TGF-β2 (Homo sapiens) (P61812 303-414): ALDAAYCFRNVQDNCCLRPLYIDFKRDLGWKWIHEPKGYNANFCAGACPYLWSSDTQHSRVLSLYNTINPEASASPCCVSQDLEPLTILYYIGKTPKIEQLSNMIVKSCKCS

Regarding human TGF-β2 (ligand), the Kd in experiment [1] was determined as 15 nM; in experiment [2], 7.9 nM; in experiment [3] it was 192 nM; in experiment [4], 353 nM. Also, the koff – broadly, the rate constant with which the complex falls apart – was found to be 0.044 s⁻¹ in experiment [1], 0.029 s⁻¹ in experiment [2], 0.02 s⁻¹ in experiment [3] and 0.029 s⁻¹ in experiment [4]. Besides, the kon – broadly, the second-order rate constant of association – was 4.4e+06 M⁻¹ s⁻¹ in experiment [1], 5.2e+06 M⁻¹ s⁻¹ in experiment [2], 110000 M⁻¹ s⁻¹ in experiment [3] and 79000 M⁻¹ s⁻¹ in experiment [4].
“TGFR-3 membrane-proximal ectodomain C-terminal half of ectodomain (from UniProt P26342)”: the Kd in experiment [5] was 5800 nM; in experiment [6] it was 2600 nM; in experiment [7], 9700 nM.
“TGFR-3-ZP(ΔC) (from UniProt O88393 438-734) (domain or fragment)”: the stoichiometry N – broadly, the number of molecules, sites or subunits per partner or assembly – in experiment [8] was determined as 2.

The values above are taken from paper PMC3695229.
